The values that follow come from article PMC8575500.

For the assay, the target named is C12-AcpP (Escherichia coli acyl carrier protein AcpP, wt, carrying a C12 acyl chain) (Escherichia coli) (UniProt P0A6A8).
UniProt P0A6A8, sequence (P0A6A8 whole entry): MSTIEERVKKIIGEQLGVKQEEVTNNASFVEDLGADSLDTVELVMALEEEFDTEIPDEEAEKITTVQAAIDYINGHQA

As to “Escherichia coli FabF K65A/K69A (enzyme)”, the completion of the reaction after 10 min, from the remaining C12-AcpP by HPLC is 65%.
Regarding “Escherichia coli FabF K65A/R68A/K69A (enzyme)”, the completion of the reaction after 10 min, from the remaining C12-AcpP by HPLC is 15%.
On to “Escherichia coli FabF K65A/R127A/K128A (enzyme)”, for which the completion of the reaction after 10 min, from the remaining C12-AcpP by HPLC was 44%.
With “Escherichia coli FabF R127A/K128A/R206A (enzyme)”, the completion of the reaction after 10 min, from the remaining C12-AcpP by HPLC was 13%.
As for Escherichia coli FabF R206A (enzyme), the completion of the reaction after 10 min, from the remaining C12-AcpP by HPLC turned out to be 39%.
